Ends that are not written are not given here.

Results on four molecules are retold here after patent publication US8598315B2, “Protein transduction domains derived from secretory leukocyte protease inhibitor” (Research Foundation of City University of New York, priority 2007, dated 2013).

The subject of data set [1] is retinal ganglion cell layer of the retina. As to the kind of experiment: SLPI-derived PTD injected into adult eye (Example 8, expected result). To be noted: adult rats, injected into the eyes, 4 hours.
Experimental: To analyze the transduction characteristics of SLPI11-25 in vivo, fSLPI11-25 is injected into the eyes of adult rats.
For data set [2] the test system is unchanged. As to the kind of experiment: Internalization in vivo after injection into the vitreous chamber of the eye. Conditions: adult rats, 5 μl of 1 μg/μl into vitreous chamber, 4 hours.
Experimental: To analyze the transduction characteristics of SLPI in vivo, fSLPI was injected into the eyes of adult rats. Long-Evans rats (200-250 g) were anesthetized with 2.5% isofluorane and 5 μl of fSLPI (1 μg/μl) or unconjugated fluorescein was injected into the vitreous chamber of the right eye using a glass micropipette (1 μm diameter) attached to a microsyringe pump. 4 hours later, the animals were sacrificed by transcardial perfusion with 4% paraformaldehyde. Following removal of the cornea and lens, the eyes were dissected out and post-fixed in 4% paraformaldehyde for 48 hours. Tissues were then cryoprotected in 30% sucrose in phosphate-buffered saline (PBS) for an additional 48 hours. Tissues were sectioned sagitally at 30 μm on a cryostat and thaw-mounted onto gelatin-coated slides.
Data set [3] has as its system DRG neurons. The data set can be described thus: Internalization of fluorescein-labeled SLPI/peptides by DRG neurons at 37° C. (fluorescence microscopy). Format: cell-based. Conditions: for internalization / presence in nuclei of DRG neurons: P6 DRG neurons, 5 μg/ml, 15 minutes. As to the method:
To visualize internalization of SLPI in living cells, SLPI was labeled with fluorescein using a Fluorescein-EX protein labeling kit (Molecular Probes). The labeling reaction was performed following the protocol provided by the manufacturer. P5 DRG neurons were isolated (Mukhopadhyay et al., 1994; DeBellard et al., 1996; Cai et al., 1999; supra) and treated with either 10 μg/ml of fluorescein-labeled SLPI (fSLPI) or unconjugated fluorescein in SATO culture medium. Cells were then plated in 8 well chamber slides coated with 100 μg/ml poly-D-lysine (PDL) and incubated for 1 hour at 37° C. Cells were then fixed with 4% paraformaldehyde and immunostained using a monoclonal antibody to the neuronal marker βIII tubulin (1:1000 dilution, Covance). After an overnight incubation at 4° C., the cells were rinse and incubated successively with biotinylated anti-mouse antibody (1:500 dilution, Amersham) and Texas Red-conjugated streptavidin (1:300 dilution, Amersham). Slides were then coverslipped and viewed using an upright fluorescence microscope.
To further characterize SLPI internalization into living cells, P5 DRG neurons in SATO culture medium were treated with unconjugated fluorescein, 1 μg/ml fSLPI, or 10 μg/ml fSLPI and plated onto PDL-coated slides for 5 minutes at 37° C. Cells were then fixed and immunostained for βIII tubulin as described.
The transduction characteristics of a SLPI-derived PTD comprising amino acids 11-25 of human SLPI (SLPI11-25) were compared to those of the SLPI protein. SLPI11-25 and penetratin were custom synthesized and labeled with fluorescein at the C-terminus by Invitrogen. P6 DRG neurons were isolated and treated with unconjugated fluorescein, 5 μg/ml fSLPI, 5 μg/ml SLPI11-25, or 5 μg/ml penetratin in SATO culture medium. Cells were plated onto PDL-coated slides and incubated for 15 minutes at 37° C. Cells were then fixed and immunostained for βIII tubulin as described.

The subject of data set [4] is Chinese hamster ovary (CHO) cells. As to the kind of experiment: Presence in the underlying CHO cell monolayer at 4° C. Type of data set: cell-based. Conditions: 10 μg/ml, 4 hours. As to the method: (§1) For these experiments, monolayers of Chinese hamster ovary (CHO) cells were prepared by plating 75,000 cells into the wells of 8-well chamber slides coated with 20 μg/ml PDL and 10 μg/ml fibronectin (Mukhopadhyay et al., 1994, supra). These cells were incubated overnight at 37° C. to allow the monolayers to form. P6 DRG neurons were then isolated, plated on the monolayers in SATO culture medium, and incubated for an additional 16 hours. This approach was used because of the harsh conditions used in these experiments. Neurons would likely fail to adhere to the slides if plated directly onto PDL and incubated at 4° C., and so, we enhanced adhesion by plating the neurons on CHO cell monolayers and allowing them to extend neurites. Cold SATO culture medium was supplemented with 10 μg/ml penetratin, fSLPI, or SLPI11-25 and added to the wells containing the neurons. The slides were then covered and incubated at 4° C. for 4 hours. Cells were then fixed and immunostained for βIII tubulin as described.

The subject of data set [5] is DRG neurons. As to the kind of experiment: Internalization at 4° C. by DRG neurons plated on CHO cell monolayers. Type of data set: cell-based. To be noted: P6 DRG neurons, 10 μg/ml, 4 hours. As to the method: as §1
A short description of data set [6]: Blood brain barrier crossing after intraperitoneal injection. Type of data set: in vivo, 129SI/SV1MJ mice. Conditions: mice, intraperitoneal 100 μg. As to the method: To assess whether SLPI crosses the blood brain barrier, adult 129SI/SV1MJ mice received intraperitoneal injections of 100 μg fSLPI in sterile PBS or unconjugated fluorescein (500 μl total volume). Mice were sacrificed by transcardial perfusion with 4% paraformaldehyde after 4 and 8 hours. The brains and cervical spinal cords were dissected out and prepared for sectioning as described. Tissues were sectioned coronally at 30 μm and slides were coverslipped as described. […] This may be an inherent property of SLPI or may be secondary to its observed efficient cellular internalization which may in turn prevent SLPI from ever reaching the CNS in high enough concentrations to be detected.
To assess whether SLPI11-25 crosses the blood brain barrier, 129SI/SV1MJ mice received intraperitoneal injections of 100 μg SLPI11-25 or penetratin in sterile PBS ([…]). Mice were sacrificed after 1 and 4 hours, and the brains and cervical spinal cords were prepared for sectioning as described. Tissues were sectioned coronally at 30 μm and slides were coverslipped as described. […] This may be an inherent property of SLPI-derived PTDs, or may be secondary to its observed efficient cellular internalization, which may in turn prevent the SLPI-derived PTD from ever reaching the CNS in high enough concentrations to be detected.

The next data set concerns cerebellar neurons. The data set can be described thus: Western blot of cytoplasmic and nuclear fractions of treated cerebellar neurons. To be noted: 0, 1, 5, and 10 μg/ml, 1 hour, 37° C. Format: cell-based, rats. The method, then: FIG. 1: Western blot analysis of cytoplasmic and nuclear fractions from cerebellar neurons treated with 0, 1, 5, and 10 μg/ml SLPI for 1 hour. Higher levels of SLPI are observed in both cytoplasmic and nuclear fractions with increasing concentrations of SLPI. Phospho-CREB is used as a nuclear marker and actin is used as a loading control. See Example 1.
To characterize the transduction abilities of the SLPI protein, cerebellar neurons were isolated from postnatal day 6 (P6) rats (Mukhopadhyay et al., Neuron 13:757-767 (1994); DeBellard et al., Mol. Cell. Neurosci. 7:89-101 (1996); Cai et al., Neuron 22:89-101 (1999)) and treated with 0, 1, 5, and 10 μg/ml recombinant human SLPI (R&D Systems) in SATO culture medium (Doherty et al., Neuron 5:209-219 (1990); Nature 343:464-466 (1990)). Cells were incubated at 37° C. for 1 hour, and cytoplasmic and nuclear fractions were prepared using NE-PER cytoplasmic and nuclear extraction reagents (Pierce). Protein samples were subjected to SDS-PAGE using 15% SDS polyacrylamide gels and transferred to nitrocellulose. SLPI was detected using a polyclonal antibody to recombinant human SLPI (R&D Systems). […] The nuclear localization of SLPI was then confirmed by reprobing the membrane for a well-known nuclear marker: phosphorylated cyclic AMP response element binding protein (pCREB; Cell Signaling). […]
In general terms: In western blotting, separated proteins are transferred to a membrane and probed.

For `O=C1OC2(c3ccc(O)cc3Oc3cc(O)ccc32)c2ccccc21` [fluorescein], the “presence in the retinal ganglion cell layer of the retina” value is on record as “no signal is observed” in data set [1] and “no signal was observed” in data set [2].

For the molecule “SLPI11-25: SLPI-derived PTD, amino acids 11-25 of human SLPI (PPKKSAQCLRYKKPE, SEQ ID NO: 2), labeled with fluorescein at the C-terminus (PPKKSAQCLRYKKPE-fluorescein; listed as Homo sapiens)”, in the data set with DRG neurons [3], the “internalization / presence in nuclei of DRG neurons” value is “present in the nuclei of DRG neurons”. In data set [4], the “present in the underlying CHO cell monolayer” value was “not”. The “nuclear localization at the restrictive temperature” value with DRG neurons [5] is listed as “still occurred at the restrictive temperature”. For the same molecule, the “observed in the brain and spinal cord” value in data set [6] (1 and 4 hours) was “No SLPI11-25 was observed in the brain and spinal cord at either time point”.

B1: SLPI: recombinant human secretory leukocyte protease inhibitor (R&D Systems), 107 amino acid polypeptide, SEQ ID NO: 1 (protein, listed as Homo sapiens)
chain: SGKSFKAGVCPPKKSAQCLRYKKPECQSDWQCPGKKRCCPDTCGIKCLDPVDTPNPTRRKPGKCPVTYGQCLMLNPPNFCEMDGQCKRDLKCCMGMCGKSCVSPVKA
In the case of B1, in the data set with cerebellar neurons, the “SLPI in cytoplasmic and nuclear fractions” value is “present in increasing amounts in both the cytoplasmic and nuclear fractions”.

B2: fSLPI: SLPI labeled with fluorescein using a Fluorescein-EX protein labeling kit (protein, UniProt P03973 26-132, looked up)
Antileukoproteinase: SGKSFKAGVCPPKKSAQCLRYKKPECQSDWQCPGKKRCCPDTCGIKCLDPVDTPNPTRRKPGKCPVTYGQCLMLNPPNFCEMDGQCKRDLKCCMGMCGKSCVSPVKA
modifications: fluorescein label
notes: SLPI labeled with fluorescein using a Fluorescein-EX protein labeling kit
For B2, in the data set on DRG neurons [3] (P5 DRG neurons, 1 μg/ml or 10 μg/ml, 5 minutes), the internalization into nuclei result is listed as “internalized into nuclei within 5 minutes in a dose-dependent manner”. The “internalization / presence in nuclei of neurons” value in the data set with DRG neurons [3] (P5 DRG neurons, 10 μg/ml, 1 hour) was “clearly present in the nuclei of neurons”. For the same molecule, the “internalization / presence in nuclei of DRG neurons” value with DRG neurons [3] is on record as “present in the nuclei of DRG neurons”. Moreover, in data set [4], the “present in the underlying CHO cell monolayer” value is listed as “not”. In the data set on DRG neurons [5], the “nuclear localization at the restrictive temperature” value is “still occurred at the restrictive temperature”. In data set [6] (4 and 8 hours), the “observed in the brain and spinal cord” value is “No fSLPI was observed in the brain and spinal cord at either time point”.
